Assay results as given in doi:10.1101/2025.11.13.688252, “Cap1 forms a cyclic tetra-adenylate-induced membrane pore during the type III-A CRISPR-Cas immune response” (bioRxiv, 2025).

Experiments:
[1] = molecular target: T1, Cap1 (CRISPR-associated pore 1) (Parafilimonas terrae, UniProt A0A1I5TJE5); test: ITC with purified CARFL domain; cryo-EM structure of cA4-bound full-length tetramer ([…] Å); assay type: binding
T1 construct: gene SAMN05444277_102160; ITC: CARFL domain (residues 85–220), His6-tagged; cryo-EM: full-length Cap1-His6 in GDN, homotetramer
T1 sequence (A0A1I5TJE5 85-220): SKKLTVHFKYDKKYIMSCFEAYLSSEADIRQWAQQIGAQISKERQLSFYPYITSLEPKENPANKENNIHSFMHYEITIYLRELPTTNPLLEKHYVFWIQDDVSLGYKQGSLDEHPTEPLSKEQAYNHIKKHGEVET

[2] = molecular target: T2, Cap1 (CRISPR-associated pore 1) (Parafilimonas terrae, UniProt A0A1I5TJE5, Q118A); test: ITC with purified CARFL Q118A domain; assay type: binding
T2 construct: gene SAMN05444277_102160; CARFL domain (residues 85–220), His6-tagged

[3] = molecular target: Cap1 (CRISPR-associated pore 1), full-length, C-terminal His6 tag (Parafilimonas terrae); test: cryo-EM structure; Cap1 in GDN, 150 μM (as monomer) with 800 μM cA4, 30 min on ice; two classes: 2.9 Å (C4; DUF4579 not visible) and 3.6 Å (C4; DUF4579 visible, TM1 not resolved)
[4] = molecular target: Cap1 (CRISPR-associated pore 1), full-length, C-terminal His6 tag (Parafilimonas terrae); test: SEC-MALS; conjugate SEC-MALS (protein conjugate method) of apo-Cap1 without cOA ligand; Superdex200 10/300 increase; 25 mM Hepes pH 8, 200 mM NaCl, 2 mM β-mercaptoethanol, 5 % glycerol, 375 μM GDN
[5] = molecular target: Cap1 (CRISPR-associated pore 1), full-length, C-terminal His6 tag (Parafilimonas terrae); test: cryo-EM structure; apo-Cap1 in GDN, 200 μM protein, 0.5 mM FOM detergent added for grids; map at 3.4 Å, C1 symmetry

Molecule	Kd [1]	Kd [2]	stoichiometry N [3]	stoichiometry N [4]	stoichiometry N [5]
Nc1ncnc2c1ncn2[C@@H]1O[C@@H]2COP(=O)(O)O[C@H]3[C@@H](O)[C@H](n4cnc5c(N)ncnc54)O[C@@H]3COP(=O)(O)O[C@H]3[C@@H](O)[C@H](n4cnc5c(N)ncnc54)O[C@@H]3COP(=O)(O)O[C@H]3[C@@H](O)[C@H](n4cnc5c(N)ncnc54)O[C@@H]3COP(=O)(O)O[C@H]2[C@H]1O [cA4, cyclic tetra-adenylate]	~0.033 µM	~1.2 µM			
Cap1 (CRISPR-associated pore 1), full-length, C-terminal His6 tag (natural protein)			4	4	4
